From publication PMC10101019

Target: DENV-2 particles (dengue virus 2)

B1: Trx-tagged mucin protein of Aedes aegypti (natural protein)
chain: MQTFACICLISILISESFGKFDTPADPVFSDDVTDYDSPSGIDYYDVKDYPMIPGELNVYRKTKPGGLLPSSDVDMKGKMLTSKEVTTKPRNIPTRQHRVQNRIRKPARFSTVVPLPTAALTAPQCILQRTTPKPLWRREGGRVIIDGSDPNIDIFKVMRESRRRPTEAPKPTGNLPMRDIVGNEIKPETASNQFLVLGSVLRCRETKQEVHEHRTRNSRVEISDPTVTGLTVEYPPNIIRLTHRFESTSTGGKAFVFRTMNGKQGILKLKWYSCPTRNSG
  DENV-2 titer by focus-forming assay 6 days after microinjection of DENV-2 particles with anti-mucin antibodies into Ae. aegypti, against DENV-2 with PBS or pre-immune serum (% reduction in DENV-2 titer): 12.5
